Laboratory results as given in the supplement of paper PMC10065799, “High-throughput profiling of sequence recognition by tyrosine kinases and SH2 domains using bacterial peptide display” (eLife, 2023).
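Note: 11-residue human phosphosite peptides and single-mutation variants displayed on the E. coli surface, counted by deep sequencing, each peptide's frequency after selection divided by its frequency in the unselected input library; frequency after pTyr selection over input frequency; kinase dosed for 20-30% of maximal phosphorylation in three min.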

What follows are sequences tested against MERTK (UniProt Q12866) (assay: phosphorylation enrichment, bacterial display (enrichment ratio); higher = better substrate or ligand; peptides without Tyr show the background).
Sequence of MERTK (Q12866 whole entry, looked up): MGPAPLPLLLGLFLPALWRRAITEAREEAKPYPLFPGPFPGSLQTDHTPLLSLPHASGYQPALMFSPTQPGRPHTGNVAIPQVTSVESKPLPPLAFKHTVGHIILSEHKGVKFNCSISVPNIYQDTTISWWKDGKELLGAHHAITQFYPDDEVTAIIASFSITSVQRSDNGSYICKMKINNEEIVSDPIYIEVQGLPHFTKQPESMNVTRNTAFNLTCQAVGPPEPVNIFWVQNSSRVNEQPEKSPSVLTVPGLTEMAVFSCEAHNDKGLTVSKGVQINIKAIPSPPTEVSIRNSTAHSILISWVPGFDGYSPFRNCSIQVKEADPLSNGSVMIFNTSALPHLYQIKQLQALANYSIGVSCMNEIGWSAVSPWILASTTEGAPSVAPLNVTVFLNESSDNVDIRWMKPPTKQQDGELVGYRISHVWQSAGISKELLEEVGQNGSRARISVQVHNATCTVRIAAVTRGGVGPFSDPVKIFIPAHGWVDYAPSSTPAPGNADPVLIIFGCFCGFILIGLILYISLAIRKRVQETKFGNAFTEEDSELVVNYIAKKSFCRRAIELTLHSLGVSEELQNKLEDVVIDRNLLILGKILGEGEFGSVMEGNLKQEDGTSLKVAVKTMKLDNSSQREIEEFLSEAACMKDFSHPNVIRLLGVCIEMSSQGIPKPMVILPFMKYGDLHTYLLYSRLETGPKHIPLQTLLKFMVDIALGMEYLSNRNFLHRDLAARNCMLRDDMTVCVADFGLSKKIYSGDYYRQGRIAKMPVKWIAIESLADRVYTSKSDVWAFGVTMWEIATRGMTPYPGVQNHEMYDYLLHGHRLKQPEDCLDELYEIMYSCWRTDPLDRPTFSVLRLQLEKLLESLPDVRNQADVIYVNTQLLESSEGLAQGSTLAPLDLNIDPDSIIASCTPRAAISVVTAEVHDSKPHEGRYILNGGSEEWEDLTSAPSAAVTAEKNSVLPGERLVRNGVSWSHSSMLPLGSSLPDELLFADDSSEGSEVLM
For YTTIHYNYMCN [TP53_Y234_C229Y], the phosphorylation enrichment was 4.13.
YTDPYYDYEIE [ZC3H18_Y372_A368T] gave a phosphorylation enrichment of 1.31.
HAKKNYGNSSV [HDX_Y197] gave a phosphorylation enrichment of 0.355.
Sequence KTTILHKLKLG [ARF1_Y35_Y35H] has a phosphorylation enrichment of 0.35.
In the case of KFVVVYFRETD [IL17RB_Y447_I451T_YF], the phosphorylation enrichment is reported as 0.417.
VHYLVYHHHHH [CACNA1H_Y519_H516Y] showed a phosphorylation enrichment of 0.773.
In the case of RSSPVYVGRVV [TGM2_Y219], the phosphorylation enrichment is reported as 0.818.
Sequence ADARMYGVHPW [PLP1_Y207_L210H] has a phosphorylation enrichment of 0.391.
HSQEDYFECFQ [ZIM2_Y411] was tested, and the phosphorylation enrichment was 0.624.
For WCKPLYFSCAV [MMS22L_Y28_P27L], the phosphorylation enrichment was 0.907.
EWQQTYTFDSG [JUP_Y20_YF] gave a phosphorylation enrichment of 0.668.
SQQTYCRVSNM [ABCD1_Y181_Y181C] was tested, and the phosphorylation enrichment was 0.738.
For CTHDLYMIMRE [FGFR3_Y724], the phosphorylation enrichment was 1.18.
With SVTCTYSPALY [TP53_Y126_N131Y] the phosphorylation enrichment was 0.495.
STKELYEKFMI showed a phosphorylation enrichment of 0.872.
For GRPMDYHVSIT [OTOF_Y254_Q255H], the phosphorylation enrichment was 0.414.
With MAPQMYEFHLP [NCAPD2_Y6] the phosphorylation enrichment was 5.35.
For PMFHSYVSLPF [PLXNA2_Y293_K289M], the phosphorylation enrichment was 1.2.
With TNYCLYLRSLE [MTM1_Y71_R69C] the phosphorylation enrichment was 1.19.
Sequence SLDLSYFHTSS [EMD_Y181_P183H_YF] has a phosphorylation enrichment of 0.566.
Sequence IGEGTYGVLYK [CDK2_Y15_V18L] has a phosphorylation enrichment of 2.63.
For ARGMEYLASQK [FGFR2_Y616], the phosphorylation enrichment was 0.394.
In the case of MEIHAYRKLSE [LMNA_Y376_L380S], the phosphorylation enrichment is reported as 0.342.
In the case of FGHTFYNQAIM [MCCC2_Y196_R193H], the phosphorylation enrichment is reported as 0.445.
For LLIMEYAKFGS [RET_Y806_V804M_YF], the phosphorylation enrichment was 0.701.
With ECKEAYHEGEC [PRKN_Y372] the phosphorylation enrichment was 0.456.
In the case of TSQSQYSSFRE [CCDC170_Y323_F324S], the phosphorylation enrichment is reported as 0.57.
TLPAFYMGNFS [GLB1_Y552] was tested, and the phosphorylation enrichment was 0.538.
With TLKDVCDDGKF [RPS6KA3_Y483_Y483C_YF] the phosphorylation enrichment was 0.498.
Work on RRNVYYYSYLL [PTEN_Y177_Y174N] yielded a phosphorylation enrichment of 8.2.
KDYETYQSFQN [CTNND2_Y1157_P1159S] showed a phosphorylation enrichment of 0.427.
Sequence AKLVQYYMEHH [PTPN11_Y80_E76K] has a phosphorylation enrichment of 0.983.
Sequence STAPSYGNPSS [CD19_Y378_G373S] has a phosphorylation enrichment of 0.402.

What follows are sequences tested against Fes (UniProt P07332) in the same assay as above.
Sequence of Fes (P07332 whole entry, looked up): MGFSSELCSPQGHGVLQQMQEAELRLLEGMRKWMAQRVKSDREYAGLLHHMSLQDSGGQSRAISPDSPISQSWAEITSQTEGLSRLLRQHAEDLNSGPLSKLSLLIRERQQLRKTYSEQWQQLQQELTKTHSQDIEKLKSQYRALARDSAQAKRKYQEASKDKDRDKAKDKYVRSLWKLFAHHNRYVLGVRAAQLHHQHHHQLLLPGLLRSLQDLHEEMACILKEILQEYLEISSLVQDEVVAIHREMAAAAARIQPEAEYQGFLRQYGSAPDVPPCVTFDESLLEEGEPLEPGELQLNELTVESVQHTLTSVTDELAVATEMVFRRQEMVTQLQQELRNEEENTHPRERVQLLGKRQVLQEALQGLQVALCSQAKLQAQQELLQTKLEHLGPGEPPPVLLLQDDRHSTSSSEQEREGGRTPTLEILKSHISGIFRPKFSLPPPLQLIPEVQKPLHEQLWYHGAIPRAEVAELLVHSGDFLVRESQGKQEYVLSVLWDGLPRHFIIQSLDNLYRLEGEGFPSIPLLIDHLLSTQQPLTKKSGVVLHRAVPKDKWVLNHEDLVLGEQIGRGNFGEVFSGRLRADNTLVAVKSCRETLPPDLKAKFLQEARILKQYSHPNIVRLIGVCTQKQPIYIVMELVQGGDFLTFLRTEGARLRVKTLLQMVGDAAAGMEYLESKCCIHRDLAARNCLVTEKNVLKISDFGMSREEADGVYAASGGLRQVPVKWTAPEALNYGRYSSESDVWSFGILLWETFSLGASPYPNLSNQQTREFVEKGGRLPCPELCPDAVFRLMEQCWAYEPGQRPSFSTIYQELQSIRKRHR
YTTIHYNYMCN [TP53_Y234_C229Y] showed a phosphorylation enrichment of 1.16.
YTDPYYDYEIE [ZC3H18_Y372_A368T] gave a phosphorylation enrichment of 1.27.
HAKKNYGNSSV [HDX_Y197] gave a phosphorylation enrichment of 0.409.
Sequence KTTILHKLKLG [ARF1_Y35_Y35H] has a phosphorylation enrichment of 0.739.
Work on KFVVVYFRETD [IL17RB_Y447_I451T_YF] yielded a phosphorylation enrichment of 1.23.
Sequence VHYLVYHHHHH [CACNA1H_Y519_H516Y] has a phosphorylation enrichment of 2.17.
RSSPVYVGRVV [TGM2_Y219] was tested, and the phosphorylation enrichment was 1.03.
ADARMYGVHPW [PLP1_Y207_L210H] was tested, and the phosphorylation enrichment was 0.726.
HSQEDYFECFQ [ZIM2_Y411] gave a phosphorylation enrichment of 1.82.
For WCKPLYFSCAV [MMS22L_Y28_P27L], the phosphorylation enrichment was 1.21.
EWQQTYTFDSG [JUP_Y20_YF] gave a phosphorylation enrichment of 0.904.
SQQTYCRVSNM [ABCD1_Y181_Y181C] showed a phosphorylation enrichment of 0.88.
In the case of CTHDLYMIMRE [FGFR3_Y724], the phosphorylation enrichment is reported as 1.46.
In the case of SVTCTYSPALY [TP53_Y126_N131Y], the phosphorylation enrichment is reported as 1.71.
In the case of STKELYEKFMI, the phosphorylation enrichment is reported as 0.857.
For GRPMDYHVSIT [OTOF_Y254_Q255H], the phosphorylation enrichment was 0.923.
MAPQMYEFHLP [NCAPD2_Y6] was tested, and the phosphorylation enrichment was 0.766.
PMFHSYVSLPF [PLXNA2_Y293_K289M] showed a phosphorylation enrichment of 1.56.
In the case of TNYCLYLRSLE [MTM1_Y71_R69C], the phosphorylation enrichment is reported as 1.46.
Sequence SLDLSYFHTSS [EMD_Y181_P183H_YF] has a phosphorylation enrichment of 0.881.
In the case of IGEGTYGVLYK [CDK2_Y15_V18L], the phosphorylation enrichment is reported as 1.04.
In the case of ARGMEYLASQK [FGFR2_Y616], the phosphorylation enrichment is reported as 0.657.
Work on MEIHAYRKLSE [LMNA_Y376_L380S] yielded a phosphorylation enrichment of 0.788.
In the case of FGHTFYNQAIM [MCCC2_Y196_R193H], the phosphorylation enrichment is reported as 0.945.
In the case of LLIMEYAKFGS [RET_Y806_V804M_YF], the phosphorylation enrichment is reported as 1.77.
In the case of ECKEAYHEGEC [PRKN_Y372], the phosphorylation enrichment is reported as 1.26.
Sequence TSQSQYSSFRE [CCDC170_Y323_F324S] has a phosphorylation enrichment of 0.626.
In the case of TLPAFYMGNFS [GLB1_Y552], the phosphorylation enrichment is reported as 1.02.
TLKDVCDDGKF [RPS6KA3_Y483_Y483C_YF] showed a phosphorylation enrichment of 1.1.
RRNVYYYSYLL [PTEN_Y177_Y174N] was tested, and the phosphorylation enrichment was 0.796.
In the case of KDYETYQSFQN [CTNND2_Y1157_P1159S], the phosphorylation enrichment is reported as 1.03.
In the case of AKLVQYYMEHH [PTPN11_Y80_E76K], the phosphorylation enrichment is reported as 0.839.
Sequence STAPSYGNPSS [CD19_Y378_G373S] has a phosphorylation enrichment of 0.505.

These sequences were tested on AncSZ in the same assay as above.
YTTIHYNYMCN [TP53_Y234_C229Y] gave a phosphorylation enrichment of 1.43.
Sequence YTDPYYDYEIE [ZC3H18_Y372_A368T] has a phosphorylation enrichment of 2.13.
Sequence HAKKNYGNSSV [HDX_Y197] has a phosphorylation enrichment of 0.398.
KTTILHKLKLG [ARF1_Y35_Y35H] gave a phosphorylation enrichment of 0.584.
KFVVVYFRETD [IL17RB_Y447_I451T_YF] gave a phosphorylation enrichment of 1.36.
In the case of VHYLVYHHHHH [CACNA1H_Y519_H516Y], the phosphorylation enrichment is reported as 1.17.
RSSPVYVGRVV [TGM2_Y219] gave a phosphorylation enrichment of 1.18.
With ADARMYGVHPW [PLP1_Y207_L210H] the phosphorylation enrichment was 0.604.
Work on HSQEDYFECFQ [ZIM2_Y411] yielded a phosphorylation enrichment of 3.08.
WCKPLYFSCAV [MMS22L_Y28_P27L] gave a phosphorylation enrichment of 1.26.
With EWQQTYTFDSG [JUP_Y20_YF] the phosphorylation enrichment was 1.06.
With SQQTYCRVSNM [ABCD1_Y181_Y181C] the phosphorylation enrichment was 0.799.
CTHDLYMIMRE [FGFR3_Y724] gave a phosphorylation enrichment of 1.31.
SVTCTYSPALY [TP53_Y126_N131Y] showed a phosphorylation enrichment of 1.76.
STKELYEKFMI showed a phosphorylation enrichment of 0.725.
GRPMDYHVSIT [OTOF_Y254_Q255H] was tested, and the phosphorylation enrichment was 0.732.
With MAPQMYEFHLP [NCAPD2_Y6] the phosphorylation enrichment was 0.795.
With PMFHSYVSLPF [PLXNA2_Y293_K289M] the phosphorylation enrichment was 1.4.
With TNYCLYLRSLE [MTM1_Y71_R69C] the phosphorylation enrichment was 1.67.
SLDLSYFHTSS [EMD_Y181_P183H_YF] was tested, and the phosphorylation enrichment was 0.799.
For IGEGTYGVLYK [CDK2_Y15_V18L], the phosphorylation enrichment was 0.817.
For ARGMEYLASQK [FGFR2_Y616], the phosphorylation enrichment was 0.576.
Work on MEIHAYRKLSE [LMNA_Y376_L380S] yielded a phosphorylation enrichment of 0.729.
In the case of FGHTFYNQAIM [MCCC2_Y196_R193H], the phosphorylation enrichment is reported as 0.715.
With LLIMEYAKFGS [RET_Y806_V804M_YF] the phosphorylation enrichment was 1.34.
ECKEAYHEGEC [PRKN_Y372] was tested, and the phosphorylation enrichment was 1.32.
TSQSQYSSFRE [CCDC170_Y323_F324S] was tested, and the phosphorylation enrichment was 0.604.
In the case of TLPAFYMGNFS [GLB1_Y552], the phosphorylation enrichment is reported as 0.998.
TLKDVCDDGKF [RPS6KA3_Y483_Y483C_YF] was tested, and the phosphorylation enrichment was 1.03.
With RRNVYYYSYLL [PTEN_Y177_Y174N] the phosphorylation enrichment was 1.16.
Sequence KDYETYQSFQN [CTNND2_Y1157_P1159S] has a phosphorylation enrichment of 1.33.
With AKLVQYYMEHH [PTPN11_Y80_E76K] the phosphorylation enrichment was 0.774.
In the case of STAPSYGNPSS [CD19_Y378_G373S], the phosphorylation enrichment is reported as 0.545.

These sequences were tested on c-Abl (mouse) in the same assay as above.
YTTIHYNYMCN [TP53_Y234_C229Y] showed a phosphorylation enrichment of 0.92.
YTDPYYDYEIE [ZC3H18_Y372_A368T] gave a phosphorylation enrichment of 0.871.
HAKKNYGNSSV [HDX_Y197] gave a phosphorylation enrichment of 0.508.
KTTILHKLKLG [ARF1_Y35_Y35H] showed a phosphorylation enrichment of 0.591.
For KFVVVYFRETD [IL17RB_Y447_I451T_YF], the phosphorylation enrichment was 0.734.
VHYLVYHHHHH [CACNA1H_Y519_H516Y] showed a phosphorylation enrichment of 1.4.
RSSPVYVGRVV [TGM2_Y219] showed a phosphorylation enrichment of 1.71.
ADARMYGVHPW [PLP1_Y207_L210H] was tested, and the phosphorylation enrichment was 0.53.
HSQEDYFECFQ [ZIM2_Y411] gave a phosphorylation enrichment of 0.902.
In the case of WCKPLYFSCAV [MMS22L_Y28_P27L], the phosphorylation enrichment is reported as 0.821.
Work on EWQQTYTFDSG [JUP_Y20_YF] yielded a phosphorylation enrichment of 0.546.
With SQQTYCRVSNM [ABCD1_Y181_Y181C] the phosphorylation enrichment was 0.851.
For CTHDLYMIMRE [FGFR3_Y724], the phosphorylation enrichment was 0.848.
For SVTCTYSPALY [TP53_Y126_N131Y], the phosphorylation enrichment was 0.91.
With STKELYEKFMI the phosphorylation enrichment was 0.6.
Work on GRPMDYHVSIT [OTOF_Y254_Q255H] yielded a phosphorylation enrichment of 0.626.
Work on MAPQMYEFHLP [NCAPD2_Y6] yielded a phosphorylation enrichment of 0.473.
For PMFHSYVSLPF [PLXNA2_Y293_K289M], the phosphorylation enrichment was 0.712.
TNYCLYLRSLE [MTM1_Y71_R69C] was tested, and the phosphorylation enrichment was 0.883.
SLDLSYFHTSS [EMD_Y181_P183H_YF] gave a phosphorylation enrichment of 0.645.
Sequence IGEGTYGVLYK [CDK2_Y15_V18L] has a phosphorylation enrichment of 0.587.
ARGMEYLASQK [FGFR2_Y616] was tested, and the phosphorylation enrichment was 0.669.
Sequence MEIHAYRKLSE [LMNA_Y376_L380S] has a phosphorylation enrichment of 0.641.
Work on FGHTFYNQAIM [MCCC2_Y196_R193H] yielded a phosphorylation enrichment of 0.527.
Work on LLIMEYAKFGS [RET_Y806_V804M_YF] yielded a phosphorylation enrichment of 1.51.
With ECKEAYHEGEC [PRKN_Y372] the phosphorylation enrichment was 0.761.
TSQSQYSSFRE [CCDC170_Y323_F324S] was tested, and the phosphorylation enrichment was 0.607.
With TLPAFYMGNFS [GLB1_Y552] the phosphorylation enrichment was 0.661.
Sequence TLKDVCDDGKF [RPS6KA3_Y483_Y483C_YF] has a phosphorylation enrichment of 0.885.
In the case of RRNVYYYSYLL [PTEN_Y177_Y174N], the phosphorylation enrichment is reported as 0.616.
Work on KDYETYQSFQN [CTNND2_Y1157_P1159S] yielded a phosphorylation enrichment of 0.875.
AKLVQYYMEHH [PTPN11_Y80_E76K] was tested, and the phosphorylation enrichment was 0.709.
Sequence STAPSYGNPSS [CD19_Y378_G373S] has a phosphorylation enrichment of 0.482.
